What all share (format): biochemical
Experiment [1] in a line: Inhibitor binding assay of SEQ ID NO 3 variants, Inhibitor 1, in Model B detergent. Conditions: relative Ki, IF>1.0 = lower Ki. The source says:
(§1) Where E is the protease, I is the inhibitor and EI is the protease-inhibitor complex. […] The concentration of enzyme-inhibitor in the detergent solution is then given by:
(§2) where Etot is the total protease concentration ([Etot]=[E]+[EI]), Itot is the total inhibitor concentration ([Itot]=[I]+[EI]), and Ki is the equilibrium binding constant for the reaction. The measured slopes V are given by:
(§3) where V0 is the slope without inhibitor added. To calculate apparent binding constant Ki least square fitting of measured slopes at various inhibitor concentrations to this equation is performed with Ki and V0 as variables.
(§4) Purified protease variants are pre-diluted to approximately 0.2 mg/ml in dilution buffer. The experimental conditions are described in Table 5. 40 μl diluted protease is then mixed with 40 μl inhibitor solution Inhibitor 1: (Cbz-Gly-Ala-NHCH(CH2C6H4pOH)C(OH)(SO3Na)—H, wherein Cbz is benzyloxycarbonyl) or 40 μl Inhibitor 2: (4-FPBA) solution in the well of a 96 well microtiter plate (Nunc F 96-MTP). […] After 10 min mixing of protease and inhibitor at room temperature, 30 μl of the mixture is transferred to a microtiter plate (Nunc U96 PP 0.5 ml) with 270 μl Model B detergent (described in Table 1) in the wells resulting in inhibitor 1 concentrations of 0-30 μM and inhibitor 2 concentrations of 0-6000 μM. Protease, inhibitor and detergent is mixed for 1 hour using magnetic bars for 1 hour at room temperature to reach equilibrium. Then 20 μl is transferred to a microtiter plate (Nunc F 96-MTP). 100 μl substrate solution is added and after 5 sec mixing absorbance at 405 nm is measured every 20 sec for 5 min on a SpectraMax Plus reader. Slope from linear regression of initial increase in absorbance at 405 nm is used for calculation of apparent binding constants. Ki values were calculated according to the “Calculation of Ki” method described in “Materials and Methods”
(§5) Having the Ki for each variant, it is possible to calculate the effect of a single mutation, if data are available for at least two variants that differ only by that mutation. In this case, the relative Ki for the mutation (Improvement Factor, or IF) is calculated:
(§6) A lower Ki is desirable, as a satisfactory inhibition can be obtained at a lower inhibitor concentration, so beneficial mutations have an IF>1.0

Experiment [2] is described as follows: Inhibitor binding assay of SEQ ID NO 3 variants, Inhibitor 2, in Model B detergent. The conditions noted are these: in Model B relative to SEQ ID NO 3; relative Ki, IF>1.0 = lower Ki.
Excerpt: as §1, §2, §3, §4, §5, §6

The nature of experiment [3]: Inhibitor binding assay of SEQ ID NO 6 variants, Inhibitor 1, in Model B detergent. Conditions: in Model B relative to SEQ ID NO 6; relative Ki, IF>1.0 = lower Ki.
Excerpt: as §1, §2, §3
(§7) Purified protease variants are pre-diluted to approximately 0.2 mg/ml in dilution buffer. The experimental conditions are described in Table 5 40 μl diluted protease is then mixed with 40 μl inhibitor solution Inhibitor 1 or 40 μl inhibitor 2 solution in the well of a 96 well microtiter plate (Nunc F 96-MTP). […] After 10 min mixing of protease and inhibitor at room temperature, 30 μl of the mixture is transferred to a microtiter plate (Nunc U96 PP 0.5 ml) with 270 μl Model B detergent (described in Table 1) in the wells resulting in inhibitor 1 concentrations of 0-30 μM and inhibitor 2 concentrations of 0-6000 μM. Protease, inhibitor and detergent is mixed for 1 hour using magnetic bars for 1 hour at room temperature to reach equilibrium. Then 20 μl is transferred to a microtiter plate (Nunc F 96-MTP). 100 μl substrate solution is added and after 5 sec mixing absorbance at 405 nm is measured every 20 sec for 5 min on a SpectraMax Plus reader. Slope from linear regression of initial increase in absorbance at 405 nm is used for calculation of apparent binding constants. Ki values were calculated according to the “Calculation of Ki” method described in “Materials and Methods”
(§8) Having the Ki for each variant, it is possible to calculate the effect of a single mutation, if data are available for at least two variants that differ only by that mutation. In this case, the relative Ki for the mutation (Improvement Factor, or IF) is calculated: […]

A short description of experiment [4]: Inhibitor binding assay of SEQ ID NO 6 variants, Inhibitor 2, in Model B detergent. Conditions: in Model B relative to SEQ ID NO 6; relative Ki, IF>1.0 = lower Ki.
Excerpt: as §1, §2, §3, §7, §8

Where [5] appears, read: in Model B relative to SEQ ID NO 3 comprising S173P + S175P + F180Y.

B1: L184F: protease variant of SEQ ID NO 3 (protein, listed as Bacillus sp.)
chain: AVPSTQTPWGIKSIYNDQSITKTTGGSGIKVAVLDTGVYTSHLDLAGSAEQCKDFTQSNPLVDGSCTDRQGHGTHVAGTVLAHGGSNGQGVYGVAPQAKLWAYKVLGDNGSGYSDDIAAAIRHVADEASRTGSKVVINMSLGSSAKDSLIASAVDYAYGKGVLIVAAAGNSGSGSNTIGFPGGFVNAVAVAALENVQQNGTYRVADFSSRGNPATAGDYIIQERDIEVSAPGASVESTWYTGGYNTISGTSMATPHVAGLAAKIWSANTSLSHSQLRTELQNRAKVYDIKGGIGAGTGDDYASGFGYPRVK
In the case of B1, the “inhibitor 1 binding constant improvement factors (IF)” value in experiment [1] (in Model B relative to SEQ ID NO 3) worked out at 2.27. Moreover, the “inhibitor 2 binding constant improvement factors (IF)” value in experiment [2] was found to be 1.39.

B2: A145E: protease variant of SEQ ID NO 3 (protein, listed as Bacillus sp.)
chain: AVPSTQTPWGIKSIYNDQSITKTTGGSGIKVAVLDTGVYTSHLDLAGSAEQCKDFTQSNPLVDGSCTDRQGHGTHVAGTVLAHGGSNGQGVYGVAPQAKLWAYKVLGDNGSGYSDDIAAAIRHVADEASRTGSKVVINMSLGSSEKDSLIASAVDYAYGKGVLIVAAAGNSGSGSNTIGFPGGLVNAVAVAALENVQQNGTYRVADFSSRGNPATAGDYIIQERDIEVSAPGASVESTWYTGGYNTISGTSMATPHVAGLAAKIWSANTSLSHSQLRTELQNRAKVYDIKGGIGAGTGDDYASGFGYPRVK
As to B2, the “inhibitor 2 binding constant improvement factors (IF)” value in experiment [2] amounted to 1.03.

B3: S173P + S175P + F180Y + L184H: protease variant of SEQ ID NO 3 (protein, listed as Bacillus sp.)
chain: AVPSTQTPWGIKSIYNDQSITKTTGGSGIKVAVLDTGVYTSHLDLAGSAEQCKDFTQSNPLVDGSCTDRQGHGTHVAGTVLAHGGSNGQGVYGVAPQAKLWAYKVLGDNGSGYSDDIAAAIRHVADEASRTGSKVVINMSLGSSAKDSLIASAVDYAYGKGVLIVAAAGNSGPGPNTIGYPGGHVNAVAVAALENVQQNGTYRVADFSSRGNPATAGDYIIQERDIEVSAPGASVESTWYTGGYNTISGTSMATPHVAGLAAKIWSANTSLSHSQLRTELQNRAKVYDIKGGIGAGTGDDYASGFGYPRVK
On to B3, for which the “inhibitor 1 binding constant improvement factors (IF)” value in experiment [1] (setting [5]) stood at 2.50.

B4: S111E: protease variant of SEQ ID NO 3 (protein, listed as Bacillus sp.)
chain: AVPSTQTPWGIKSIYNDQSITKTTGGSGIKVAVLDTGVYTSHLDLAGSAEQCKDFTQSNPLVDGSCTDRQGHGTHVAGTVLAHGGSNGQGVYGVAPQAKLWAYKVLGDNGEGYSDDIAAAIRHVADEASRTGSKVVINMSLGSSAKDSLIASAVDYAYGKGVLIVAAAGNSGSGSNTIGFPGGLVNAVAVAALENVQQNGTYRVADFSSRGNPATAGDYIIQERDIEVSAPGASVESTWYTGGYNTISGTSMATPHVAGLAAKIWSANTSLSHSQLRTELQNRAKVYDIKGGIGAGTGDDYASGFGYPRVK
For the molecule B4, the “inhibitor 2 binding constant improvement factors (IF)” value in experiment [2] is 1.23.

B5: S144R: protease variant of SEQ ID NO 3 (protein, listed as Bacillus sp.)
chain: AVPSTQTPWGIKSIYNDQSITKTTGGSGIKVAVLDTGVYTSHLDLAGSAEQCKDFTQSNPLVDGSCTDRQGHGTHVAGTVLAHGGSNGQGVYGVAPQAKLWAYKVLGDNGSGYSDDIAAAIRHVADEASRTGSKVVINMSLGSRAKDSLIASAVDYAYGKGVLIVAAAGNSGSGSNTIGFPGGLVNAVAVAALENVQQNGTYRVADFSSRGNPATAGDYIIQERDIEVSAPGASVESTWYTGGYNTISGTSMATPHVAGLAAKIWSANTSLSHSQLRTELQNRAKVYDIKGGIGAGTGDDYASGFGYPRVK
With B5, the “inhibitor 2 binding constant improvement factors (IF)” value in experiment [2] is 2.03.

B6: S173P + S175P + F180Y + L184D: protease variant of SEQ ID NO 3 (protein, listed as Bacillus sp.)
chain: AVPSTQTPWGIKSIYNDQSITKTTGGSGIKVAVLDTGVYTSHLDLAGSAEQCKDFTQSNPLVDGSCTDRQGHGTHVAGTVLAHGGSNGQGVYGVAPQAKLWAYKVLGDNGSGYSDDIAAAIRHVADEASRTGSKVVINMSLGSSAKDSLIASAVDYAYGKGVLIVAAAGNSGPGPNTIGYPGGDVNAVAVAALENVQQNGTYRVADFSSRGNPATAGDYIIQERDIEVSAPGASVESTWYTGGYNTISGTSMATPHVAGLAAKIWSANTSLSHSQLRTELQNRAKVYDIKGGIGAGTGDDYASGFGYPRVK
As for B6, the “inhibitor 1 binding constant improvement factors (IF)” value in experiment [1] (setting [5]) is 3.28.

B7: S111D: protease variant of SEQ ID NO 3 (protein, listed as Bacillus sp.)
chain: AVPSTQTPWGIKSIYNDQSITKTTGGSGIKVAVLDTGVYTSHLDLAGSAEQCKDFTQSNPLVDGSCTDRQGHGTHVAGTVLAHGGSNGQGVYGVAPQAKLWAYKVLGDNGDGYSDDIAAAIRHVADEASRTGSKVVINMSLGSSAKDSLIASAVDYAYGKGVLIVAAAGNSGSGSNTIGFPGGLVNAVAVAALENVQQNGTYRVADFSSRGNPATAGDYIIQERDIEVSAPGASVESTWYTGGYNTISGTSMATPHVAGLAAKIWSANTSLSHSQLRTELQNRAKVYDIKGGIGAGTGDDYASGFGYPRVK
With B7, the “inhibitor 2 binding constant improvement factors (IF)” value in experiment [2] is 1.53.

B8: N60F + S100I: protease variant of SEQ ID NO 6 (protein)
chain: AQSVPWGISRVQAPAAHNRGLTGSGVKVAVLDTGISTHPDLNIRGGASFVPGEPSTQDGFGHGTHVAGTIAALNNSIGVLGVAPSAELYAVKVLGASEGIGSVSSIAQGLEWAGNNGMHVANLSLGSPSPSATLEQAVNSATSRGVLVVAASGNSGAGSISYPARYANAMAVGATDQNNNRASFSQYGAGLDIVAPGVNVQSTYPGSTYASLNGTSMATPHVAGAAALVKQKNPSWSNVQIRNHLKNTATSLGSTNLYGSGLVNAEAATR
modifications: Protease C
As for B8, the “inhibitor 1 binding constant improvement factors (IF)” value in experiment [3] is reported as 11.26.

B9: A164S: protease variant of SEQ ID NO 6 (protein)
chain: AQSVPWGISRVQAPAAHNRGLTGSGVKVAVLDTGISTHPDLNIRGGASFVPGEPSTQDGNGHGTHVAGTIAALNNSIGVLGVAPSAELYAVKVLGASEGSGSVSSIAQGLEWAGNNGMHVANLSLGSPSPSATLEQAVNSATSRGVLVVAASGNSGAGSISYPSRYANAMAVGATDQNNNRASFSQYGAGLDIVAPGVNVQSTYPGSTYASLNGTSMATPHVAGAAALVKQKNPSWSNVQIRNHLKNTATSLGSTNLYGSGLVNAEAATR
modifications: Protease C
B9: the “inhibitor 2 binding constant improvement factors (IF)” value in experiment [4] came out at 1.84.

B10: S100I + Y166F: protease variant of SEQ ID NO 6 (protein)
chain: AQSVPWGISRVQAPAAHNRGLTGSGVKVAVLDTGISTHPDLNIRGGASFVPGEPSTQDGNGHGTHVAGTIAALNNSIGVLGVAPSAELYAVKVLGASEGIGSVSSIAQGLEWAGNNGMHVANLSLGSPSPSATLEQAVNSATSRGVLVVAASGNSGAGSISYPARFANAMAVGATDQNNNRASFSQYGAGLDIVAPGVNVQSTYPGSTYASLNGTSMATPHVAGAAALVKQKNPSWSNVQIRNHLKNTATSLGSTNLYGSGLVNAEAATR
modifications: Protease C
Consider B10, for which the “inhibitor 1 binding constant improvement factors (IF)” value in experiment [3] is reported as 11.26. In addition, the “inhibitor 2 binding constant improvement factors (IF)” value in experiment [4] is on record as 2.31.

B11: S100I + L134V: protease variant of SEQ ID NO 6 (protein)
chain: AQSVPWGISRVQAPAAHNRGLTGSGVKVAVLDTGISTHPDLNIRGGASFVPGEPSTQDGNGHGTHVAGTIAALNNSIGVLGVAPSAELYAVKVLGASEGIGSVSSIAQGLEWAGNNGMHVANLSLGSPSPSATVEQAVNSATSRGVLVVAASGNSGAGSISYPARYANAMAVGATDQNNNRASFSQYGAGLDIVAPGVNVQSTYPGSTYASLNGTSMATPHVAGAAALVKQKNPSWSNVQIRNHLKNTATSLGSTNLYGSGLVNAEAATR
modifications: Protease C
As to B11, the “inhibitor 1 binding constant improvement factors (IF)” value in experiment [3] came out at 15.14. Besides, in experiment [4], the “inhibitor 2 binding constant improvement factors (IF)” value is on record as 1.1.

The values are drawn from patent US20170342349A1, “STABILIZED ENZYME COMPOSITIONS” (NOVOZYMES A/S, priority 2014, published 2017).
